Molecular target: T1, NF-kB p50 (NFKB1) (Homo sapiens) (UniProt P19838)
T1 sequence: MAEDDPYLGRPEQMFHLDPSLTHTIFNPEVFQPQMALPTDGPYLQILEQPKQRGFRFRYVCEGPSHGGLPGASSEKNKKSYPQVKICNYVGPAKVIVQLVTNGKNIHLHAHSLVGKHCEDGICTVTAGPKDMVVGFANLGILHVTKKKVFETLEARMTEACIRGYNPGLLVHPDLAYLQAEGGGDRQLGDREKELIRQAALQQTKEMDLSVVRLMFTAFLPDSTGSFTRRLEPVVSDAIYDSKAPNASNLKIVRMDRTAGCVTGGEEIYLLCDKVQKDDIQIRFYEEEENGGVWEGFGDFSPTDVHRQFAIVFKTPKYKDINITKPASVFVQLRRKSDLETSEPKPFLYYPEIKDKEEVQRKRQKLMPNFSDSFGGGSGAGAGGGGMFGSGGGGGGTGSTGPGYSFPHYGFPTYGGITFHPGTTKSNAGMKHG
Assay: EMSA
Details: saturating p50 monomer (200 nM)

Row | Sequence | binding signal (% fluorescence co-migrating with p50) (internucleoside phosphotriester triethylene glycol amino linker after T8 of SEQ 1) | binding signal (% fluorescence co-migrating with p50) (internucleoside phosphotriester triethylene glycol amino linker after T12 of SEQ 2, truncated site)
1 | CGGAAAGTCCCTCATAGCT (double strand) [I (ODN2)/Cy5.5-XIX (ODN3)] | 94 | –
2 | TGGAAAGCTTTTTACAGTT (double strand) [ODN4/Cy5.5-ODN5] | – | 63
